Results taken from US7460961B2, “N-TRADD active site and uses thereof” (Genetics Institute, LLC, priority 2000, dated 2008).

Experiment: Solubility and stability of the N-TRADD NMR sample
Format: physicochemical
From the text: Cloning and site directed mutagenesis: The DNA sequence coding for the first 169 amino acids from N-TRADD was cloned in pRSETB (Invitrogen) after amplification by PCR. The primer at the 5′ end introduces an NdeI site upstream from the initiation site, and the primer at the 3′ end introduces a His tag after aa169. The sequence was confirmed by sequencing analysis. Single point mutations were introduced using Chameleon double-stranded site directed mutagenesis (Stratagene). The C-TRAF2 sequence (residues 262 to 501 of human TRAF2) was amplified by PCR using a 5′ end primer flanking with an XhoI and NdeI site, which introduces a Met before residue 262, and a 3′ end primer introducing 6×His before a stop codon followed by a NcoI site. The C-TRAF2 sequence was cloned into pAcSG2 (Pharmingen) by XhoI and NcoI sites for baculovirus expression. Protein expression and purification: The polypeptide for N-TRADD (1-169) was overexpressed in BL-21 E. coli. [U-^15N] or [U-^13C, U-^15N]. N-TRADD was purified from cells grown at 25° C. on minimal medium containing 2 g/L […] or [^15N]ammonium sulfate and 2 g/L [U-^13C]glucose. […]
Structure Determination: The structure of N-TRADD was determined from 2302 NMR derived restraints obtained using uniformly ^15N and ^15N/^13C labeled protein, with double and triple resonance NMR experiments. […]

B1: N-TRADD: N-terminal domain (amino acid residues 1-169, SEQ ID NO:1) of human TNFR-1 associated death domain protein (protein)
chain: MAAGQNGHEWVGSAYLFVESSLDKVVLSDAYAHPQQKVAVYRALQAALAESGGSPDVLQMLKIHRSDPQLIVQLRFCGRQPCGRFLRAYREGALRAALQRSLAAALAQHSVPLQLELRAGAERLDALLADEERCLSCILAQQPDRLRDEELAELEDALRNLKCGSGAR
In the case of B1, the solubility (dithiothreitol (20 mM) required to prevent aggregation) is reported as ~1 mM and the sample stability (~1 mM, 20 mM dithiothreitol) is reported as 6-8 weeks.
